The values below come from patent US20120165265A1 (published 2012).

For the assay, the target named is T1, Flag-myc-CAD (Homo sapiens (Human), UniProt Q13586 342-448).
T1 construct: also called Flag-tagged CAD; not shown: Flag and myc tags from the custom vector pDEST-pGWI-Flag-Myc-x
Put plainly: co-immunoprecipitation from HEK 293T cells. As for the experimental part: Immunoprecipitation and Immunoblot Analysis. […] Lysates were spun at 12,000 rpm for 10 min, and the supernatant was incubated with anti-Flag M2 agarose beads (Sigma), or anti-myc or -HA antibody followed by IgG agarose beads (Pierce). Lysates and immunoprecipitates were subjected to SDS-PAGE, probed with HRP-conjugated secondary antibody and detected by enhanced chemiluminescence (Pierce).
STIM1-CAD BINDS TO THE N- AND C-TERMINI OF ORAI1. To identify regions of Orai1 important for activation by CAD, we characterized the binding of CAD to Orai1 using two approaches. First we expressed fusions of NubG with the N-terminus, the II-III cytoplasmic loop and the C-terminus of Orai1 in yeast together with different CAD-Cub-LV constructs. […] Based on the level of b-gal activity, CAD appears to interact with the Orai1 C-terminus with a higher affinity than with the N-terminus.

T1 sequence (Q13586 342-448): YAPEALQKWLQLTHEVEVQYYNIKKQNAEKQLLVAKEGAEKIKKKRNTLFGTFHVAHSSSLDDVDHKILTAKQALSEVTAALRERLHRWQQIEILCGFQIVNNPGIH

B1: Orai1 1-70, expressed in HEK 293T cells (other)
chain: MHPEPAPPPSRSSPELPPSGGSTTSGSRRSRRRSGDGEPPGAPPPPPSAVTYPDWIGQSYSEVMSLNEHS
notes: not shown: The detection tag of the HEK construct (probably N-terminal YFP)
With B1, the binding result is reported as “no binding”.
